Assays:
[1] = target: T1, cleaved-AREG peptide (Homo sapiens, UniProt P15514); test: ELISA binding of 1A3 and 1A3-VC-PAB-MMAE to cleaved-AREG peptide; conditions: 0.001-1 μg/mL
T1 construct: host or cells: synthetic peptide
Protocol: Maxisorp flat bottom 96-well plates (Thermo Fisher Scientific) were coated with 5 μg/mL cleaved-AREG peptide at 4° C. overnight. After washing thrice with PBST (PBS with 0.05% Tween20) and blocking for 2 h at RT with 5% non-fat dry milk in PBST, various concentrations of 1A3 and 1A3-VC-PAB-MMAE (0.001, 0.01, 0.1, 1 μg/mL) were added to the wells and incubated for 2 h at RT. The wells were washed four times with PBST and were incubated at RT with Goat anti-rabbit IgG (H+L) Cross-adsorbed-HRP conjugate secondary Ab (ThermoFisher G-21234) for 1 h. One-Step™ Turbo™ B-ELISA Substrate Solution (Thermo Fisher Scientific) was added to the wells for color development, incubated for 15 min and the reaction was stopped by adding 2 M H2SO4.

[2] = test system: MCF7 cells; test: Internalization and intracellular localization of 1A3-pHrodo, live-cell imaging; format: cell-based, human; conditions: time course to 2.5 h
Protocol: In order to study internalization, 1A3 was conjugated with pHrodo iFL Red dye using pHrodo iFL Red Microscale Protein Labeling Kit (P36014, Thermo Fisher Scientific). MCF7 cells were seeded in 12 mm Nunc Glass Bottom Dish, at a density of 1 ×10^5 cells/dish. After allowing the cells to attach overnight, the cells were incubated for 60 min with […] Hoechst dye for nuclei staining and LysoTracker® Green DND-26 (Thermo Fisher Scientific) for lysosomal labeling. The cells were then incubated with 1A3-pHrodo (2 μg/mL) for 20 min at 37° C. After washing the wells with PBS, the cells were supplemented with 1× live-cell imaging solution (Molecular probes, Thermo Fisher Scientific). Fluorescence images were acquired at 30 min intervals for 2.5 h with the Olympus 1×71 inverted fluorescence microscope (Olympus, Shinjuku, Tokyo, Japan). TAPI-2 (20 μM)—pre-treatment was performed overnight, with DMSO serving as a control.

[3] = test system: MCF7 xenografts; test: Orthotopic MCF7 breast cancer xenograft in NSG mice; format: in vivo, mouse
Description: In Vivo Antitumor Activity Studies: The animal experiments were approved by the Institutional Animal Care and Use Committee of University of Wisconsin La Crosse (La Crosse, Wisconsin, USA). Four-week-old female NOD.Cg-Prkdc^scid II2rg^tm1Wjl/SzJ mice (NSG; The Jackson Laboratory) were acclimated for 1 week before the experiments. For MCF7 breast cancer xenograft model, the mice were implanted subcutaneously with 0.72-mg 17β-estradiol 90-day release tablets (Innovative Research of America) 3 days prior to cell injection. […] Firefly luciferase expressing MCF7 and MCF7-F cells (2×10^6 cells in a 1:1 mixture of serum-free DMEM and Matrigel) were injected orthotopically into the fourth inguinal mammary fat pad of each mouse. Once the tumors were well established, each cell line cohort was divided into three groups (n=5). Mean tumor volume at the start of treatment was 111 mm^3 for the MCF7 cohorts and 119 mm^3 for the MCF7-F cohorts. The mice were treated by intraperitoneal injection every 4 days for a total of six doses with unconjugated or MMAE conjugated anti-cleaved-AREG 1A3 antibody (5 mg/kg), or vehicle control (PBS). Tumor volumes were calculated from caliper data by using the formula: Volume (mm^3)=(Length×Width^2)/2. Mice were imaged weekly with the in vivo FX PRO imaging system (Carestream Molecular Imaging, Woodbridge, CA, USA) after injecting luciferin (150 mg/kg body weight). Tumor volume and body weight were monitored once a week. Statistical Analysis:
To test in vivo efficacy of 1A3-MMAE, human breast cancer cell lines expressing luciferase were injected orthotopically into NSG mice (one tumor in each inguinal mammary gland). Once the average tumor size reached approximately 100-125 mm^3, mice were randomized to one of three treatment groups: PBS, 1A3 (5 mg/kg) or 1A3-MMAE (5 mg/kg). Mice received intraperitoneal injections every 4 days for six total injections and were monitored for tumor progression or regression. Similar experiments were performed with MCF7 (FIGS. 5A, 5B, and 5C, left panels) and MCF7-F (FIGS. 5A, 5B, and 5C, right panels) xenografts.

[4] = target: T2, cleaved AREG (Homo sapiens, UniProt P15514); test: Immunohistochemistry on breast tumor tissue micro-array; conditions: for proportion of tumors exhibiting medium/high intensity staining: 10 μg/mL
T2 construct: tissue US Biomax Inc; host or cells: breast disease spectrum tissue micro-array (formalin-fixed, paraffin-embedded)
T2 sequence (P15514 188-252): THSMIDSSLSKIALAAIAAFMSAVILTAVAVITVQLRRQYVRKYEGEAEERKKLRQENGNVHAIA
Protocol: A breast disease spectrum tissue micro-array was purchased from US Biomax Inc. (Derwood, MD, USA). The slides were deparaffinized in xylene and rehydrated by serial incubations in graded ethanol and then in water in a Histo-Tek® SL Slide Stainer (Sakura Finetek USA, Inc., Torrance, CA, USA). Antigen retrieval was performed in a steamer by boiling slides in a container of citrate buffer (pH 6.0) for 20 min, which was then removed for 15 min of cooling on the benchtop. Slides were washed in 1×Wash buffer (Dako Agilent, Santa Clara, CA, USA) and endogenous peroxidase was quenched by incubating with Dako Dual Endogenous Enzyme Block (S2003) for 10 min. Slides were washed in 1× Wash buffer, blocked (5% rabbit/10% goat serum in PBS), and immunostained with goat anti-AREG antibody (15 μg/mL; AF262, R&D Systems) or rabbit anti-cleaved AREG 1A3 antibody (10 μg/mL) overnight at 4° C. Slides were washed four times in 1× Wash buffer, followed by the incubation for 45 min at room temperature in 1:100 dilution of rabbit anti-goat immunoglobulins/HRP (Dako, P0160 or ready-to-use goat anti-rabbit HRP labeled polymer (Dako, K4003). The slides were washed twice in 1× Wash buffer and the color was developed with 3,3-diaminobenzidine tetrahydrochloride substrate chromogen system (K3468, DAKO, Santa Clara, CA, USA). Sections were washed with water and counterstained with hematoxylin, rinsed with water, dehydrated by serial ethanol washes to 100%, cleared and mounted in Permount (Thermo Fisher Scientific). The staining intensity was assessed semi-quantitatively using a four-point scale (negligible=0, low=1, medium=2, high=3) by two investigators working independently on blinded samples. Discordant scores were resolved by joint review.

B1: 1A3: Rabbit monoclonal IgG specific to cleaved AREG; VH SEQ ID NO: 3, VL SEQ ID NO: 4 (antibody, V domains shown)
VH: QSVKESEGRLVTPGTPLRLTCTVAGYSLSRYHMCWVRQAPGKGLEWIGMIGGSGRTDYASWAKGRFTISKTSTTVDLKITSPTTEDTATYFCSTVYTDSDGDFWGPGTLVTVSS
VL: AELDMTQTPSSKSVPVGGTVTINCQASESVYSNDRLAWFQQKPGQPPKLLIYYASTLASGVPSRFKGSGSGTQFTLTISDLECADAATYYCQSCYDMSSYGVAFGGGTELEIL
modifications: 1A3 antibody, Heavy chain; 1A3 antibody, Light chain
binding to cleaved AREG peptide, unconjugated vs MMAE-conjugated [1]: no substantial difference in binding
trafficking after internalization (colocalization of pHrodo and Lysotracker signals) [2]: trafficked to the lysosome after internalization
longitudinal luciferase imaging of xenografts ([3]; MCF7, 5 mg/kg): exhibited tumor growth
tumor volume response by caliper measurements ([3]; MCF7, 5 mg/kg i.p. every 4 days, six doses): continued, sometimes rapid increases in tumor volume
cases with medium/high immunoreactivity ([4]; 138 breast cancer specimens): 70%
proportion of tumors exhibiting medium/high intensity staining ([4]; ER-negative tumors (n=50)): 70%
proportion of tumors exhibiting medium/high intensity staining ([4]; ER-positive tumors (n=88)): 69.3%
